Assay results taken from patent publication US20240409627A1.

What was measured:
recombinant inhibin A = recombinant inhibin A (UniProt P05111); assay: cell-based or functional assay
[1] = biological target: HA-tagged endoglin (endoglin-L) (UniProt P17813); assay: patch/FRAP on live COS7 cells; HA-endoglin immobilized by IgG cross-linking, Fab'-labeled myc-ALK1 measured; no inhibin
[2] = biological target: HA-tagged endoglin (endoglin-L) (UniProt P17813); assay: patch/FRAP on live COS7 cells; HA-endoglin immobilized by IgG cross-linking, Fab'-labeled myc-ALK1 measured; in the presence of 4 nM inhibin A
[3] = biological target: T1, endoglin on HMEC-1 human microvascular endothelial cells (human) (UniProt P17813); assay: cell-based or functional assay
T1 sequence (looked up): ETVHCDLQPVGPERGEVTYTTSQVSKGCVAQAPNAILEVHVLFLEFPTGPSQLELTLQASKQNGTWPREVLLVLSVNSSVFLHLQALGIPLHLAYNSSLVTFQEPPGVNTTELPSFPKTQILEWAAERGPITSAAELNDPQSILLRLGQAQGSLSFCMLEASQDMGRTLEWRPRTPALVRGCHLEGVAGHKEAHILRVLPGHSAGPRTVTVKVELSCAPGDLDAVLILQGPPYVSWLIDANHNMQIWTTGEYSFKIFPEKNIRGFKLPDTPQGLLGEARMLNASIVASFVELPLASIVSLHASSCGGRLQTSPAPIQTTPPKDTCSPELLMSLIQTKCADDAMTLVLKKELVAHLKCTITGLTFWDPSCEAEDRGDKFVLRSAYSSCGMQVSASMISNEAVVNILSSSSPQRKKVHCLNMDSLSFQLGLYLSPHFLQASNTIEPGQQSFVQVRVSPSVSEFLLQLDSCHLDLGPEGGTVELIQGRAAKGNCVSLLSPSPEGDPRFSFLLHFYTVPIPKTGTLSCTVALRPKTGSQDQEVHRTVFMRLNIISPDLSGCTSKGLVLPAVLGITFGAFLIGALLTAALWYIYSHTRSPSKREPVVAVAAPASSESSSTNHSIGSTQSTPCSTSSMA

UniProt P05111, sequence (P05111 233-366 limits assumed, chain 1 of 2): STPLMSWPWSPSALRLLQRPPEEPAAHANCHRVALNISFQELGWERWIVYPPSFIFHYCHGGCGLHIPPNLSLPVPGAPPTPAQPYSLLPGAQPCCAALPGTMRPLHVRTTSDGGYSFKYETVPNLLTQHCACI
UniProt P05111, sequence (P08476 311-426 limits assumed, chain 2 of 2, further chain): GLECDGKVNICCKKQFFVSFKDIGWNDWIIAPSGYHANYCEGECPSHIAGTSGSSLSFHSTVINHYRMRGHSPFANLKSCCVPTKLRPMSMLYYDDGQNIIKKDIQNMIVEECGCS

Q: With “ALK1-Fc, a human chimeric ALK1 protein (from UniProt P37023 22-118) (Fc fusion)” as the molecule, how does the fold decrease in inhibin A induced permeability of HMEC-1 monolayer at 4 h (FITC-dextran), 10 ng/mL ALK1-Fc (recombinant inhibin A) read?
A: 1.5 times

Q: What does the source list for “myc-tagged ALK1 (from UniProt P37023 22-503) (receptor)”?
A: reduction in Rf (mobile fraction) [1]: 45%; reduction in Rf (mobile fraction) [2]: 70%

B1: Tracon 105 (TRC105), a humanized endoglin monoclonal antibody (antibody, INN chains, looked up, V domains shown)
VH: EVKLEESGGGLVQPGGSMKLSCAASGFTFSDAWMDWVRQSPEKGLEWVAEIRSKASNHATYYAESVKGRFTISRDDSKSSVYLQMNSLRAEDTGIYYCTRWRRFFDSWGQGTTLTVSS
VL: QIVLSQSPAILSASPGEKVTMTCRASSSVSYMHWYQQKPGSSPKPWIYATSNLASGVPVRFSGSGSGTSYSLTISRVEAEDAATYYCQQWSSNPLTFGAGTKLELK
Q: With B1 as the molecule, how does the fold decrease in inhibin A induced permeability of HMEC-1 monolayer at 4 h (FITC-dextran), 100 µg/mL TRC105 [3] read?
A: 2.2 times
